The values below are quoted from earlier work in patent US6699832B2 (Pfizer Inc., priority 2000, dated 2004).

Where no end group is shown, it is not given here.

In data set [1] the test system is neurotensin-1 and neurotensin-2 receptors. The following applies: non-selective antagonist.
In data set [2] the target is neurotensin-1 receptor (Homo sapiens, UniProt P30989). Particulars: read-out: binding affinity at the neurotensin-1 receptor.
The target in data set [3] is neurotensin-2 receptor (Homo sapiens, UniProt O95665). Particulars: read-out: binding affinity at the neurotensin-2 receptor.
Sequence of neurotensin-2 receptor (O95665 whole entry): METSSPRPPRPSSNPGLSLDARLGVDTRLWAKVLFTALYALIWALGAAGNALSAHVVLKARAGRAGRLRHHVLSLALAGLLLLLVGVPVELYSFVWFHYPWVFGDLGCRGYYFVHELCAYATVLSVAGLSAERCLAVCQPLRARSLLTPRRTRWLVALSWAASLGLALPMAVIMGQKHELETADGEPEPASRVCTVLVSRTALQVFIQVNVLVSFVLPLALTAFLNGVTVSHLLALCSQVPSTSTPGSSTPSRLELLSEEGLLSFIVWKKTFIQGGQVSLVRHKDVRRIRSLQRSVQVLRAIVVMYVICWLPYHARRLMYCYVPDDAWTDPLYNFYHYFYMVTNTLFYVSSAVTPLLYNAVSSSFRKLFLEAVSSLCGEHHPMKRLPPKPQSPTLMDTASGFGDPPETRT

Sequence of neurotensin-1 receptor (P30989 whole entry): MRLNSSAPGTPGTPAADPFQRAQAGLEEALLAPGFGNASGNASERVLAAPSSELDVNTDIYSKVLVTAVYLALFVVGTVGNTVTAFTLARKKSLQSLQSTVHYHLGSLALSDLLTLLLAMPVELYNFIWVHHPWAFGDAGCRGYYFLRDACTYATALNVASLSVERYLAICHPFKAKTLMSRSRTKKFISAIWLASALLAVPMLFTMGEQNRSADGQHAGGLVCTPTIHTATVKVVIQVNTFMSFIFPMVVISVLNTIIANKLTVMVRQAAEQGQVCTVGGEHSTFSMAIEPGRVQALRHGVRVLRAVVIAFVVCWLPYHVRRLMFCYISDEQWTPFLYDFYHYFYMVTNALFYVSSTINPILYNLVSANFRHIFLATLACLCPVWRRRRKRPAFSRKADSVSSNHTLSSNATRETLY

In the case of `COc1cccc(OC)c1-c1cc(C(=O)NC2(C(=O)O)C3CC4CC(C3)CC2C4)nn1-c1ccc(C(=O)N(C)CCCN(C)C)cc1C(C)C` (stereo not drawn) [SR142948A], the “affinity at neurotensin-1 versus neurotensin-2 receptors (selectivity)” value in data set [1] is “equal affinity”.
With “Trp11 NT(1-13): NT(1-13) in which amino acid 11 is tryptophan; selective neurotensin-1 receptor agonist (QLYENKPRRPWIL; ends and bridges not checked; UniProt P30990 151-163, looked up, variant Y11W)”, the Kd is about 1 nM in data set [2] and about 27 nM in data set [3].
